From US20240026017A1 (Kyowa Kirin, published 2024)

T1: human CC chemokine receptor 1 (human CCR1) (human, UniProt P32246 1-355)
T1 construct: endogenous on THP-1 cells in the migration assays; also called hCCR1; CHO-S-hCCR1 (expressing cells)
T1 sequence: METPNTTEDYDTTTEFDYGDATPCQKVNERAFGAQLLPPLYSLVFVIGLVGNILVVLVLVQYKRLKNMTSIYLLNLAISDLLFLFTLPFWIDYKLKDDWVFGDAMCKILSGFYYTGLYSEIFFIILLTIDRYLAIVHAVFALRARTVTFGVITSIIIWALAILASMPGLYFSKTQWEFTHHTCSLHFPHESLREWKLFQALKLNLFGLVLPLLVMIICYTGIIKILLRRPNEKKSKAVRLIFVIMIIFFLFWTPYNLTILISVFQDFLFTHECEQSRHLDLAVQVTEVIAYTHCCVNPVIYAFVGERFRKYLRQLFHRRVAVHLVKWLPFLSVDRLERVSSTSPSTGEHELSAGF


Target: T1, human CC chemokine receptor 1 (human …)
Assay: flow cytometry on CHO-S-hCCR1 cells; bound = fluorescence 10 times or more that of isotype control chDNP1
Protocol: The antigen affinity of the chKM5908′ antibody, which is a VL-substituted chimeric antibody, was measured by flow cytometry using the CHO-S-hCCR1 cells produced in Example 2. The cells were collected by centrifugation, the supernatant was removed, and the cells were suspended in PBS (Staining Medium, hereinafter, abbreviated as SM) containing 2% fetal bovine serum (FBS), 0.05% NaN₃, and 1 mM EDTA. Next, the cells were seeded in a 96-well plate so that the number of cells is 1×10⁵ per well, and the chKM5908′ antibody was added at each final concentration of 10,000, 2,000, 400, 80, 16, and 3.2 ng/mL, and the reaction was performed at 4° C. for 60 minutes. After washing the cells with SM, Goat F (ab′)₂ Anti-Human IgG PE (γ chain specific) (Southern Biotech) diluted 500-fold with SM was added and reacted at 4° C. for 60 minutes. After washing the cells with SM, the cells were resuspended in 50 μL of SM, and the fluorescence intensity was measured by the flow cytometry (FACS Canto II, BD Biosciences).
1996 June; 33 (9):759-68, hereinafter, referred to as chDNP1)] were determined to be bound to the human CCR1.

binding result | Binder
binds | chKM5908′ mut08 (antibody, V domains shown) VH: QVQLKQSGPGLVQPSQSLSITCTVSGFSLNNYGVHWVRQPPGKGLEWLGVIWSAGTTVYNAAFASRLSISKDDSKSQVFFKMNSLQAGDTAIYYCAKDGSRYYTAMDYWGQGTSVTVSS VL: DVVMTQTPLSLPVSLGDQASIFCRSSQSLVHRNGITFFHWYLQKPGQSPKLLIYKVSNRFSGVPDRFSGSGSGTDFTLKISRVAPDDLGVYFCSQGTHVPPTFGGGTKLEIK
binds | chKM5908′ mut09 (antibody, V domains shown) VH: QVQLKQSGPGLVQPSQSLSITCTVSGFSLNNYGVHWVRQPPGKGLEWLGVIWSAGTTVYNAAFISRLSISKDDSKSQVFFKMNSLQAGDTAIYYCAKDGSRAYTAMDYWGQGTSVTVSS VL: DVVMTQTPLSLPVSLGDQASIFCRSSQSLVHRNGITFFHWYLQKPGQSPKLLIYKVSNRFSGVPDRFSGSGSGTDFTLKISRVAPDDLGVYFCSQGTHVPPTFGGGTKLEIK
binds | chKM5908′ mut18 (antibody, V domains shown) VH: QVQLKQSGPGLVQPSQSLSITCTVSGFSLNNYGVHWVRQPPGKGLEWLGVIWSAGTTVYNAAAISRLSISKDDSKSQVFFKMNSLQAGDTAIYYCAKDGSRYYTAMDYWGQGTSVTVSS VL: DVVMTQTPLSLPVSLGDQASIFCRSSQSLVHRNGITFAHWYLQKPGQSPKLLIYKVSNRFSGVPDRFSGSGSGTDFTLKISRVAPDDLGVYFCSQGTHVPPTFGGGTKLEIK
binds | chKM5908′ mut12 (antibody, V domains shown) VH: QVQLKQSGPGLVQPSQSLSITCTVSGFSLNNYGVHWVRQPPGKGLEWLGVTWSAGTTVYNAAFASRLSISKDDSKSQVFFKMNSLQAGDTAIYYCAKDGSRAYAAMDYWGQGTSVTVSS VL: DVVMTQTPLSLPVSLGDQASIFCRSSQSLVHRNGITFFHWYLQKPGQSPKLLIYKVSNRFSGVPDRFSGSGSGTDFTLKISRVAPDDLGVYFCSQGTHVPPTFGGGTKLEIK
binds | chKM5908′ mut10 (antibody, V domains shown) VH: QVQLKQSGPGLVQPSQSLSITCTVSGFSLNNYGVHWVRQPPGKGLEWLGVIWSAGTTVYNAAFISRLSISKDDSKSQVFFKMNSLQAGDTAIYYCAKDGSRYYAAMDYWGQGTSVTVSS VL: DVVMTQTPLSLPVSLGDQASIFCRSSQSLVHRNGITFFHWYLQKPGQSPKLLIYKVSNRFSGVPDRFSGSGSGTDFTLKISRVAPDDLGVYFCSQGTHVPPTFGGGTKLEIK
binds | chKM5908′ mut20 (antibody, V domains shown) VH: QVQLKQSGPGLVQPSQSLSITCTVSGFSLNNYGVHWVRQPPGKGLEWLGVTWSAGTTVYNAAFASRLSISKDDSKSQVFFKMNSLQAGDTAIYYCAKDGSRAYAAMDYWGQGTSVTVSS VL: DVVMTQTPLSLPVSLGDQASIFCRSSQSLVHRNGITFAHWYLQKPGQSPKLLIYKVSNRFSGVPDRFSGSGSGTDFTLKISRVAPDDLGVYFCSQGTHVPPTFGGGTKLEIK
binds | chKM5908′ mut15 (antibody, V domains shown) VH: QVQLKQSGPGLVQPSQSLSITCTVSGFSLNNYGVHWVRQPPGKGLEWLGVTWSAGTTVYNAAFISRLSISKDDSKSQVFFKMNSLQAGDTAIYYCAKDGSRAYAAMDYWGQGTSVTVSS VL: DVVMTQTPLSLPVSLGDQASIFCRSSQSLVHRNGITFFHWYLQKPGQSPKLLIYKVSNRFSGVPDRFSGSGSGTDFTLKISRVAPDDLGVYFCSQGTHVPPTFGGGTKLEIK
binds | chKM5908′ mut13 (antibody, V domains shown) VH: QVQLKQSGPGLVQPSQSLSITCTVSGFSLNNYGVHWVRQPPGKGLEWLGVTWSAGTTVYNAAFASRLSISKDDSKSQVFFKMNSLQAGDTAIYYCAKDGSRYYAAMDYWGQGTSVTVSS VL: DVVMTQTPLSLPVSLGDQASIFCRSSQSLVHRNGITFFHWYLQKPGQSPKLLIYKVSNRFSGVPDRFSGSGSGTDFTLKISRVAPDDLGVYFCSQGTHVPPTFGGGTKLEIK
binds | chKM5908′ mut21 (antibody, V domains shown) VH: QVQLKQSGPGLVQPSQSLSITCTVSGFSLNNYGVHWVRQPPGKGLEWLGVTWSAGTTVYNAAFISRLSISKDDSKSQVFFKMNSLQAGDTAIYYCAKDGSRYYTAMDYWGQGTSVTVSS VL: DVVMTQTPLSLPVSLGDQASIFCRSSQSLVHRNGITFFHWYLQKPGQSPKLLIYKISNRFSGVPDRFSGSGSGTDFTLKISRVAPDDLGVYFCSQGTHVPPTFGGGTKLEIK
binds | chKM5908′ mut23 (antibody, V domains shown) VH: QVQLKQSGPGLVQPSQSLSITCTVSGFSLNNYGVHWVRQPPGKGLEWLGVTWSAGTTAYNAAFASRLSISKDDSKSQVFFKMNSLQAGDTAIYYCAKDGSRYYTAMDYWGQGTSVTVSS VL: DVVMTQTPLSLPVSLGDQASIFCRSSQSLVHRNGITFFHWYLQKPGQSPKLLIYKISNRFSGVPDRFSGSGSGTDFTLKISRVAPDDLGVYFCSQGTHVPPTFGGGTKLEIK
binds | chKM5908′ mut14 (antibody, V domains shown) VH: QVQLKQSGPGLVQPSQSLSITCTVSGFSLNNYGVHWVRQPPGKGLEWLGVTWSAGTTVYNAAFASRLSISKDDSKSQVFFKMNSLQAGDTAIYYCAKDGSRYYTAMDYWGQGTSVTVSS VL: DVVMTQTPLSLPVSLGDQASIFCRSSQSLVHRNGITFFHWYLQKPGQSPKLLIYKVSNRFSGVPDRFSGSGSGTDFTLKISRVAPDDLGVYFCSQGTHVPPTFGGGTKLEIK
binds | chKM5908′ mut22 (antibody, V domains shown, also called mAb5-06; mAb 5-06) VH: QVQLKQSGPGLVQPSQSLSITCTVSGFSLNNYGVHWVRQPPGKGLEWLGVIWSAGTTVYNAAAISRLSISKDDSKSQVFFKMNSLQAGDTAIYYCAKDGSRYYTAMDYWGQGTSVTVSS VL: DVVMTQTPLSLPVSLGDQASIFCRSSQSLVHRNGITFFHWYLQKPGQSPKLLIYKISNRFSGVPDRFSGSGSGTDFTLKISRVAPDDLGVYFCSQGTHVPPTFGGGTKLEIK
binds | chKM5908′ mut19 (antibody, V domains shown) VH: QVQLKQSGPGLVQPSQSLSITCTVSGFSLNNYGVHWVRQPPGKGLEWLGVTWSAGTTAYNAAFASRLSISKDDSKSQVFFKMNSLQAGDTAIYYCAKDGSRYYTAMDYWGQGTSVTVSS VL: DVVMTQTPLSLPVSLGDQASIFCRSSQSLVHRNGITFAHWYLQKPGQSPKLLIYKVSNRFSGVPDRFSGSGSGTDFTLKISRVAPDDLGVYFCSQGTHVPPTFGGGTKLEIK
binds | chKM5908′ mut17 (antibody, V domains shown) VH: QVQLKQSGPGLVQPSQSLSITCTVSGFSLNNYGVHWVRQPPGKGLEWLGVTWSAGTTVYNAAFISRLSISKDDSKSQVFFKMNSLQAGDTAIYYCAKDGSRYYTAMDYWGQGTSVTVSS VL: DVVMTQTPLSLPVSLGDQASIFCRSSQSLVHRNGITFAHWYLQKPGQSPKLLIYKVSNRFSGVPDRFSGSGSGTDFTLKISRVAPDDLGVYFCSQGTHVPPTFGGGTKLEIK
binds | chKM5908′ mut11 (antibody, V domains shown) VH: QVQLKQSGPGLVQPSQSLSITCTVSGFSLNNYGVHWVRQPPGKGLEWLGVTWSAGTTAYNAAFASRLSISKDDSKSQVFFKMNSLQAGDTAIYYCAKDGSRYYTAMDYWGQGTSVTVSS VL: DVVMTQTPLSLPVSLGDQASIFCRSSQSLVHRNGITFFHWYLQKPGQSPKLLIYKVSNRFSGVPDRFSGSGSGTDFTLKISRVAPDDLGVYFCSQGTHVPPTFGGGTKLEIK
